Assay results from article PMC12702239, “The regulatory mechanisms of SARS-CoV-2 N protein helicase and its annealing activity”.

Tests used:
CoV-2 N (nucleocapsid) = CoV-2 N (nucleocapsid) (SARS-CoV-2, UniProt P0DTC9 1-419); test: fluorescence anisotropy; 50 mM NaCl, no Mg2+, no ATP; FP: 25 mM Tris-HCl pH 7.6, 50 mM NaCl, no Mg2+, 5 nM labelled nucleic acid, 5 min; temperature not stated; Kd from Hill fits (values not in the text); conditions: protein: recombinant; tags: His6; chain copies: 2; label: 3'-6-FAM on strand 1; 5' overhang 22 nt, 21 bp
CoV-2 Nsp13 helicase = CoV-2 Nsp13 helicase (SARS-CoV-2, UniProt P0DTD1 5325-5925); test: fluorescence anisotropy; 10-42 C; no significant change; conditions: protein: recombinant; tags: N-terminal SUMO tag removed with SUMO protease; label: 3'-6-FAM on strand 1; 5' overhang 22 nt, 21 bp

B1: 5'D/D-OhS22D21 (dsDNA)
DNA 1: CTGTAGGAATGTGAAATAAAAACGATGTTTTATTTACATTGTA
DNA 2: TACAATGTAAATAAAACATCG
binding result (CoV-2 N (nucleocapsid)): binds | binding result (CoV-2 Nsp13 helicase): binds
